Experimental data as given in the supplement of paper PMC10567573.
± gives the standard deviation.

Experiment: protein stability index of a GFP-peptide fusion (GPS, HEK-293T) (PSI 1-6); higher = more stable
[1] = treatment: DMSO, c terminus: native
[2] = treatment: MLN4924 1 uM, 8 h, c terminus: native
[3] = treatment: DMSO, c terminus: a fixed tail appended
[4] = treatment: MLN4924 1 uM, 8 h, c terminus: a fixed tail appended
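Also: 24-mer peptide tiles fused after GFP, lentivirally expressed, FACS-sorted into six equal bins by GFP/DsRed ratio, decoded by Illumina sequencing, PSI is the read-weighted mean bin number.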

Sequence | protein stability index [1] | protein stability index [2] | protein stability index [3] | protein stability index [4]
RDHIPRGKEELESLGGGKTPPGR [MOG] | 3.87 ± 0.1 | 4.09 ± 0.42 | – | –
RDTTGVSQMFPSSKARTKSLLGDD [FBF1] | – | – | 4.83 ± 0.056 | 4.82 ± 0.14
REDITEPAICALRHLTSRHQEAEM [CTNNB1] | – | – | 4.58 ± 0.41 | 4.4 ± 0.43
REDNSGSDVLIGDILVLLGASLYA [SLC35F2] | – | – | 2.79 ± 0.18 | 2.99 ± 0.61
REEQQLLASTSKPVVKLLHNRSNN [KCTD13] | – | – | 4.75 ± 0.23 | 4.89 ± 0.14
REEVRGRELTGLKALYETELADAR [LMNB1] | – | – | 4.97 ± 0.2 | 4.83 ± 0.27
RENSKPRAILKPRKVCVGGKRRKD [PPP2R2B] | – | – | 4.73 ± 0.35 | 4.89 ± 0.34
RERFMECLMIGRDLVRLLQNVARI [INTS3] | – | – | 2.31 ± 0.28 | 2.54 ± 0.31
RERIERVRRIHIKRPDDRAHLHQ [KCTD10] | 4.2 ± 0.36 | 4.51 ± 0.35 | – | –
RFHDPSPAQSHTLQANDVFHKQQW [NET1] | – | – | 3.33 ± 0.11 | 3.4 ± 0.29
RFQDGDNILEKEVLPPIHAYGNRT [FEM1B] | – | – | 3.96 ± 0.14 | 4.001 ± 0.01
RFQLLYVACGMVHLLIPELGACVA [DNAAF3] | – | – | 2.97 ± 0.17 | 3.39 ± 0.44
RIYSYQMALTPVVVTLWYRAPEVL [CDK4] | – | – | 2.98 ± 0.12 | 2.77 ± 0.47
RIYVLGGGTSWTAYSLNKIHAYNL [KLHDC10] | – | – | 2.42 ± 0.41 | 2.61 ± 0.67
RKGELVTASKAIIEKEYQPHVIVS [ADD1] | – | – | 3.62 ± 0.18 | 3.97 ± 0.21
RKKEAKRKISSLSFTLEEEEEGGE [FAM50A] | – | – | 5.33 ± 0.41 | 5.67 ± 0.41
RKLSQGILIIRFEMPYNIWCDGCK [YJU2B] | – | – | 2.57 ± 0.62 | 3.3 ± 0.79
RKPGMSSTARRSRAASSQRAEEED [CHMP4C] | – | – | 5.38 ± 0.17 | 5.41 ± 0.25
RKQARQLENELDLKLVSFSKLCTS [GOSR1] | – | – | 3.03 ± 0.34 | 3.22 ± 0.54
RKTVCHNGVLGLSRLLFFLLGFLR [LPCAT4] | – | – | 2.92 ± 0.35 | 3.04 ± 0.38
RLDASTSHQNLRVDDLSVEWDAMG [FSD1] | – | – | 4.51 ± 0.34 | 4.62 ± 0.34
RLIEVEDMMVMGRKPDPMCVFTYV [SMTNL2] | – | – | 2.38 ± 0.37 | 2.59 ± 0.41
RLKLMQQNPAGELEGFQAQGHPPS [ATE1] | – | – | 4.29 ± 0.18 | 4.31 ± 0.12

Sequence | protein stability index [1] | protein stability index [2] | protein stability index [3] | protein stability index [4]
RLPGGGWTLRRTKELRKDYQGPGT [DYRK1B] | – | – | 3.14 ± 0.26 | 3.43 ± 0.35
RMDTPPPEERLEKQNEKLNNQEEE [CCDC89] | – | – | 5.55 ± 0.29 | 5.48 ± 0.28
RMEEIVEGCTGALHILARDVHNRI [CTNNB1] | – | – | 2.74 ± 0.19 | 2.89 ± 0.28
RMLEFDPAQRITLAEALLHPFFAG [CLK3] | – | – | 2.38 ± 0.25 | 2.39 ± 0.19
RPATAADCSDILRLIKELAKYEYM [SAT1] | – | – | 2.06 ± 0.14 | 2.48 ± 0.18
RQAELLEKRLQEIEELEREAERKI [SRPK2] | – | – | 5.13 ± 0.32 | 5.18 ± 0.14
RQITQVYGFYDECLRKYGNANVWK [PPP2CA] | – | – | 2.19 ± 0.33 | 2.33 ± 0.26
RQLDPSNCLGIRAFADTHSCRELL [KLHL20] | – | – | 3.07 ± 0.32 | 3.23 ± 0.3
RQNVPRKVPNHYIAIPEWFLSENA [CPXM2] | – | – | 2.82 ± 0.23 | 3.05 ± 0.5
RQRLAKNDRGDHYHWKDLNRGINI [EFHC1] | – | – | 2.96 ± 0.46 | 2.99 ± 0.21
RRHPGLGKAFPSGCSAVSEPASES [TRAF3IP2] | – | – | 4.31 ± 0.18 | 4.3 ± 0.41
RRSTTDLRGTQFDYERGKGESTED [ZSWIM9] | – | – | 5.57 ± 0.17 | 5.53 ± 0.15
RSEALAVDGAGKPGAEEAQDPEGK [CHGA] | – | – | 5.61 ± 0.15 | 5.561 ± 0.045
RTAQSEETRVWHRRDGKWQIVHFH [CAMK2A] | – | – | 3.15 ± 0.16 | 3.12 ± 0.26
RTSSGNVWVTHEEMETLETSTKTD [PPFIA4] | – | – | 5.24 ± 0.35 | 4.99 ± 0.06
RVDFEEFVELIGPKLREETAHMLG [CABP4] | – | – | 2.58 ± 0.25 | 2.73 ± 0.39
RVDHGAEIITQSPGRSSVASPRRL [MAP2] | – | – | 4.45 ± 0.13 | 4.71 ± 0.17
RVILEIDNARLAVDDFRLKYENEL [KRT13] | – | – | 2.4 ± 0.25 | 2.66 ± 0.45
RVLFIKDVIGDEICCWSFYGQGRK [KCTD10] | – | – | 1.89 ± 0.51 | 2.38 ± 0.23
RVLRQPRPALAQQAQGARAGGSAR [GMCL1] | – | – | 5.03 ± 0.23 | 4.93 ± 0.19
RVSNPGRLAELLLLETDAGPAASE [GADD45A] | – | – | 4.46 ± 0.28 | 4.28 ± 0.26
RVVDGTPCSPDSSSVCVQGRCIHA [ADAMTS4] | – | – | 4.21 ± 0.35 | 4.39 ± 0.16
RWMGLACFRSLAASSPSIRQKKLM [CCDC70] | – | – | 2.29 ± 0.61 | 2.29 ± 0.4

Sequence | protein stability index [1] | protein stability index [2] | protein stability index [3] | protein stability index [4]
RYRGLGLLASVPSNPNGNGGFMGY [CRY1] | – | – | 2.53 ± 0.14 | 2.91 ± 0.19
SAPHLENSGHTIFNDPFFIVETVC [KCNA4] | – | – | 2.43 ± 0.23 | 2.46 ± 0.38
SATNVTCYYQPAPYVSDGNFSNYY [TENT5C] | – | – | 2.05 ± 0.29 | 2.14 ± 0.28
SCCMTEEIFGPVTCVVPFDSEEEV [ALDH8A1] | – | – | 4.71 ± 0.34 | 4.83 ± 0.27
SCRELLRIADKFTQHNFQEVMESE [KLHL20] | – | – | 2.17 ± 0.14 | 2.19 ± 0.06
SDAEAVSTRWEVIAEDGTKEIESQ [TAF7L] | – | – | 5.42 ± 0.12 | 5.48 ± 0.31
SEAAIGGAMLGQTTSEEAVGGATP [HDAC6] | – | – | 5.31 ± 0.26 | 5.4 ± 0.17
SEALASTRILKHSPESSRGQCGEN [GLIPR2] | – | – | 5.29 ± 0.21 | 4.93 ± 0.25
SEEAVQKLATCYFFTVEFGLCKQD [TPH1] | – | – | 2.3 ± 0.61 | 2.27 ± 0.13
SEIPRGVRVALDYEAGQVTLHNAQ [TRIM15] | – | – | 4.45 ± 0.35 | 4.57 ± 0.11
SEKAMLRSRIEEQSQLICILKRRS [CCDC89] | – | – | 3.07 ± 0.2 | 3.19 ± 0.15
SELRTKVQEQQKQLQDQDQKLLEQ [FBXO28] | – | – | 5.5 ± 0.19 | 5.481 ± 0.034
SESRKPTVSIMEPGETRRNSYPRA [TRIM29] | – | – | 4.79 ± 0.12 | 4.43 ± 0.19
SESSLEMDDERYFNEMSAQGLRPR [CCDC6] | – | – | 4.78 ± 0.2 | 4.85 ± 0.22
SFAQLKNLKWLDLKDNPLDPVLAK [LRRC59] | – | – | 2.98 ± 0.096 | 2.96 ± 0.33
SFMPLVIKVTSATSVNLGILTADL [SLC35F2] | – | – | 2.7 ± 1 | 2.87 ± 0.49
SFRQGMHLTRHQRTHTGEKPYKCT [ZNF263] | – | – | 3.57 ± 0.65 | 3.7 ± 0.49
SGAGGTGGPAGQAGRGGAAGTAGV [MYOZ1] | – | – | 5.07 ± 0.2 | 4.93 ± 0.17
SGNDPFAPSEGSAEAAPELDLFAM [SNAP91] | – | – | 4.83 ± 0.2 | 4.89 ± 0.23
SGRSGHNTRGTGSSSSGVLMVGPN [CSNK1G3] | – | – | 4.13 ± 0.24 | 4.18 ± 0.16
SGTCSPLRHSFQKQQREKTRWLNS [ADD1] | – | – | 2.96 ± 0.26 | 3.11 ± 0.059
SGYALAEDGKRCVAVDYCASENHG [MATN2] | – | – | 4.28 ± 0.64 | 4.36 ± 0.21
SHSNITGIVEVILGETKAYVFFEK [TRIB1] | – | – | 2.41 ± 1 | 1.9 ± 0.58

Sequence | protein stability index [1] | protein stability index [2] | protein stability index [3] | protein stability index [4]
SIEEILEEQRVEQQTKLEAEKLKV [LSM1] | – | – | 5.11 ± 0.34 | 5.2 ± 0.22
SIHCLGPIKLELLEPKANLQAALQ [VPS39] | – | – | 2.61 ± 0.34 | 2.45 ± 0.36
SILTDNPTWIIDPIDGTTNFVHRF [IMPA1] | – | – | 2.19 ± 0.26 | 2.12 ± 0.27
SINALLQAEVLSRQITSPVSGING [HNF4A] | – | – | 2.7 ± 0.13 | 2.67 ± 0.2
SIVTAAKKDILLVNDHLLNFVRER [PDS5B] | – | – | 2.25 ± 0.16 | 2.3 ± 0.27
SKAAAGKMNLYESFAQATQLGDLH [INTS3] | – | – | 3.63 ± 0.25 | 3.58 ± 0.23
SKETRLTLMEEVLLLGLKDREGYT [GOLPH3] | – | – | 2.8 ± 0.22 | 2.75 ± 0.28
SKLSRKYVKAKKSIDKDEEFAGSS [FAN1] | – | – | 4.84 ± 0.14 | 4.64 ± 0.31
SKRNIKKGAVPRSIPNLAEVKKKG [HDAC6] | – | – | 4.26 ± 0.47 | 4.46 ± 0.44
SKTEELNREVATNSELVQSGKSEI [KRT17] | – | – | 5.34 ± 0.22 | 5.06 ± 0.1
SKVLSLQDLCCRAVVSCTPVHLVD [RAB40B] | – | – | 3.01 ± 0.17 | 2.85 ± 0.32
SLDFTKKILHTAWHPAENIIAIAA [PPP2R2C] | – | – | 2.58 ± 0.59 | 2.29 ± 0.31
SLFSQALKDEEAKVLQLTVRCEAL [CCDC89] | – | – | 2.8 ± 0.26 | 2.76 ± 0.17
SLLNKKADGVKPQTNSTKNSAAAT [CAMK2B] | – | – | 4.43 ± 0.055 | 4.34 ± 0.23
SLLRPLNSLAALDLSGIQTSDAAF [ZER1] | – | – | 2.87 ± 0.15 | 2.9 ± 0.24
SLLVHGFKPACMSEIKNLERYMCS [TENT5D] | – | – | 2.48 ± 0.41 | 2.41 ± 0.29
SLSDQMSVLQSVWMEVLVLGVAQR [ESRRA] | – | – | 3.33 ± 0.35 | 2.98 ± 0.46
SLSPSPLGSSAASTALERPSFLSQ [FCHO1] | – | – | 4.09 ± 0.25 | 3.98 ± 0.19
SLVQLQASHQQQVLPPRQPSALVP [MYBL2] | – | – | 3.54 ± 0.23 | 3.63 ± 0.28
SMENANQENEEKEQVANKGEPLAL [BEX1] | – | – | 5 ± 0.26 | 5.11 ± 0.22
